Reference: the supplement of paper PMC10567573

B1: RAD54B (parent)
chain: YVQEKRDGLKRRQQLEEELLRAKI

Variants of: B1
Assay: protein stability index of a GFP-peptide fusion (GPS, HEK-293T) (PSI 1-6); higher = more stable
Conditions: c terminus: a fixed tail appended
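Further: lentivirally expressed fusions sorted by FACS into six bins by GFP to DsRed ratio, PSI derived from sequencing read proportions per bin multiplied by bin number.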

| Variant | protein stability index |
| --- | --- |
| YVQEKRDGLQRRQQLEEELLRAKI | 2.5 |
| YVQEKRDGLRRRQQLEEELLRAKI | 1.98 |
| YVQEKRDGLSRRQQLEEELLRAKI | 2.49 |
| YVQEKRDGLTRRQQLEEELLRAKI | 2.5 |
| YVQEKRDGLVRRQQLEEELLRAKI | 2.9 |
| YVQEKRDGLWRRQQLEEELLRAKI | 1.47 |
| YVQEKRDGLYRRQQLEEELLRAKI | 1.77 |
| YVQEKRDGLKARQQLEEELLRAKI | 2.82 |
| YVQEKRDGLKCRQQLEEELLRAKI | 1.81 |
| YVQEKRDGLKDRQQLEEELLRAKI | 2.62 |
| YVQEKRDGLKERQQLEEELLRAKI | 3.22 |
| YVQEKRDGLKFRQQLEEELLRAKI | 1.69 |
| YVQEKRDGLKGRQQLEEELLRAKI | 2 |
| YVQEKRDGLKHRQQLEEELLRAKI | 2.93 |
| YVQEKRDGLKIRQQLEEELLRAKI | 2.86 |
| YVQEKRDGLKKRQQLEEELLRAKI | 2.44 |
| YVQEKRDGLKLRQQLEEELLRAKI | 2.23 |
| YVQEKRDGLKMRQQLEEELLRAKI | 2.07 |
| YVQEKRDGLKNRQQLEEELLRAKI | 2.67 |
| YVQEKRDGLKPRQQLEEELLRAKI | 2.25 |
| YVQEKRDGLKQRQQLEEELLRAKI | 2.32 |
| YVQEKRDGLKSRQQLEEELLRAKI | 2.36 |
| YVQEKRDGLKTRQQLEEELLRAKI | 2.46 |
| YVQEKRDGLKVRQQLEEELLRAKI | 2.13 |

| Variant | protein stability index |
| --- | --- |
| YVQEKRDGLKWRQQLEEELLRAKI | 2.46 |
| YVQEKRDGLKYRQQLEEELLRAKI | 1.97 |
| YVQEKRDGLKRAQQLEEELLRAKI | 1.85 |
| YVQEKRDGLKRCQQLEEELLRAKI | 2.25 |
| YVQEKRDGLKRDQQLEEELLRAKI | 3.23 |
| YVQEKRDGLKREQQLEEELLRAKI | 2.34 |
| YVQEKRDGLKRFQQLEEELLRAKI | 2.28 |
| YVQEKRDGLKRGQQLEEELLRAKI | 2.25 |
| YVQEKRDGLKRHQQLEEELLRAKI | 2.18 |
| YVQEKRDGLKRIQQLEEELLRAKI | 1.99 |
| YVQEKRDGLKRKQQLEEELLRAKI | 2.47 |
| YVQEKRDGLKRLQQLEEELLRAKI | 1.98 |
| YVQEKRDGLKRMQQLEEELLRAKI | 2.02 |
| YVQEKRDGLKRNQQLEEELLRAKI | 2.41 |
| YVQEKRDGLKRPQQLEEELLRAKI | 1.96 |
| YVQEKRDGLKRQQQLEEELLRAKI | 2.35 |
| YVQEKRDGLKRSQQLEEELLRAKI | 2.06 |
| YVQEKRDGLKRTQQLEEELLRAKI | 2.19 |
| YVQEKRDGLKRVQQLEEELLRAKI | 2.04 |
| YVQEKRDGLKRWQQLEEELLRAKI | 1.89 |
| YVQEKRDGLKRYQQLEEELLRAKI | 2.01 |
| YVQEKRDGLKRRAQLEEELLRAKI | 2.23 |
| YVQEKRDGLKRRCQLEEELLRAKI | 1.84 |
| YVQEKRDGLKRRDQLEEELLRAKI | 2.3 |

| Variant | protein stability index |
| --- | --- |
| YVQEKRDGLKRREQLEEELLRAKI | 2.41 |
| YVQEKRDGLKRRFQLEEELLRAKI | 1.62 |
| YVQEKRDGLKRRGQLEEELLRAKI | 2.31 |
| YVQEKRDGLKRRHQLEEELLRAKI | 2.06 |
| YVQEKRDGLKRRIQLEEELLRAKI | 2.49 |
| YVQEKRDGLKRRKQLEEELLRAKI | 1.46 |
| YVQEKRDGLKRRLQLEEELLRAKI | 2.32 |
| YVQEKRDGLKRRMQLEEELLRAKI | 2.07 |
| YVQEKRDGLKRRNQLEEELLRAKI | 1.91 |
| YVQEKRDGLKRRPQLEEELLRAKI | 2.17 |
| YVQEKRDGLKRRRQLEEELLRAKI | 1.71 |
| YVQEKRDGLKRRSQLEEELLRAKI | 1.69 |
| YVQEKRDGLKRRTQLEEELLRAKI | 2.32 |
| YVQEKRDGLKRRVQLEEELLRAKI | 2.4 |
| YVQEKRDGLKRRWQLEEELLRAKI | 1.98 |
| YVQEKRDGLKRRYQLEEELLRAKI | 1.9 |
| YVQEKRDGLKRRQALEEELLRAKI | 1.93 |
| YVQEKRDGLKRRQCLEEELLRAKI | 1.77 |
| YVQEKRDGLKRRQDLEEELLRAKI | 2.2 |
| YVQEKRDGLKRRQELEEELLRAKI | 2 |
| YVQEKRDGLKRRQFLEEELLRAKI | 2.12 |
| YVQEKRDGLKRRQGLEEELLRAKI | 2.33 |
| YVQEKRDGLKRRQHLEEELLRAKI | 1.94 |
| YVQEKRDGLKRRQILEEELLRAKI | 1.76 |

| Variant | protein stability index |
| --- | --- |
| YVQEKRDGLKRRQKLEEELLRAKI | 2.35 |
| YVQEKRDGLKRRQLLEEELLRAKI | 1.86 |
| YVQEKRDGLKRRQMLEEELLRAKI | 1.75 |
| YVQEKRDGLKRRQNLEEELLRAKI | 1.65 |
| YVQEKRDGLKRRQPLEEELLRAKI | 1.99 |
| YVQEKRDGLKRRQRLEEELLRAKI | 2.09 |
| YVQEKRDGLKRRQSLEEELLRAKI | 1.67 |
| YVQEKRDGLKRRQTLEEELLRAKI | 1.75 |
| YVQEKRDGLKRRQVLEEELLRAKI | 2.01 |
| YVQEKRDGLKRRQWLEEELLRAKI | 2.12 |
| YVQEKRDGLKRRQYLEEELLRAKI | 2.25 |
| YVQEKRDGLKRRQQAEEELLRAKI | 1.93 |
| YVQEKRDGLKRRQQCEEELLRAKI | 1.87 |
| YVQEKRDGLKRRQQDEEELLRAKI | 2.09 |
| YVQEKRDGLKRRQQEEEELLRAKI | 2.61 |
| YVQEKRDGLKRRQQFEEELLRAKI | 1.4 |
| YVQEKRDGLKRRQQGEEELLRAKI | 1.75 |
| YVQEKRDGLKRRQQHEEELLRAKI | 2.38 |
| YVQEKRDGLKRRQQIEEELLRAKI | 2.32 |
| YVQEKRDGLKRRQQKEEELLRAKI | 2.05 |
| YVQEKRDGLKRRQQMEEELLRAKI | 2.56 |
| YVQEKRDGLKRRQQNEEELLRAKI | 2.05 |
